Data on three molecules can be found in PMC5397160, “Insights into the RecQ helicase mechanism revealed by the structure of the helicase domain of human RECQL5”.

What is called Kd is a measure of binding affinity in units of concentration.

In data set [1] the target is RECQL5 11-438 (human, UniProt O94762 11-438). The data set can be described thus: fluorescence polarization; shared Bmax fit; FP: 10 mM HEPES pH 7.5, 150 mM NaCl, 25 C, 10 nM FITC probe; no nucleotide or Mg stated. The conditions noted are these: protein: recombinant; tags: none (His tag cleaved with TEV); label: 5' fluorescein (FITC) on RQ-1; fork 1:2, 31 bp, RQ-1 5' arm 32 nt, RQ-3 3' arm 30 nt. (In fluorescence polarisation assays a small probe gives low polarisation when free and higher when bound to something large.)

Data set [2] deals with RECQL5 11-526 R349A (human, UniProt O94762 11-526, R349A). The data set can be described thus: fluorescence polarization; value marked * in table; FP: 10 mM HEPES pH 7.5, 150 mM NaCl, 25 C, 10 nM FITC probe; no nucleotide or Mg stated. Conditions: protein: recombinant; tags: none (His tag cleaved with TEV); label: 5' fluorescein (FITC) on RQ-1; fork 1:2, 31 bp, RQ-1 5' arm 32 nt, RQ-3 3' arm 30 nt.

Data set [3] deals with RECQL5 11-526 (human, UniProt O94762 11-526). The data set can be described thus: fluorescence polarization; FP: 10 mM HEPES pH 7.5, 150 mM NaCl, 25 C, 10 nM FITC probe; no nucleotide or Mg stated. Conditions: protein: recombinant; tags: none (His tag cleaved with TEV); label: 5' fluorescein (FITC) on RQ-1; fork 1:2, 31 bp, RQ-1 5' arm 32 nt, RQ-3 3' arm 30 nt.
In data set [4] the target is RECQL5 11-526 W165A (human, UniProt O94762 11-526, W165A). The description is as above. Conditions: protein: recombinant; tags: none (His tag cleaved with TEV); label: 5' fluorescein (FITC) on RQ-1; fork 1:2, 31 bp, RQ-1 5' arm 32 nt, RQ-3 3' arm 30 nt.
Data set [5] deals with RECQL5 11-526 H167A (human, UniProt O94762 11-526, H167A). The description is as above. Conditions: protein: recombinant; tags: none (His tag cleaved with TEV); label: 5' fluorescein (FITC) on RQ-1; fork 1:2, 31 bp, RQ-1 5' arm 32 nt, RQ-3 3' arm 30 nt.
Data set [6] concerns the target RECQL5 11-526 D422A (human, UniProt O94762 11-526, D422A). The data set is described as above. Conditions: protein: recombinant; tags: none (His tag cleaved with TEV); label: 5' fluorescein (FITC) on RQ-1; fork 1:2, 31 bp, RQ-1 5' arm 32 nt, RQ-3 3' arm 30 nt.
In data set [7] the target is RECQL5 11-526 F420A (human, UniProt O94762 11-526, F420A). The description is as above. Conditions: protein: recombinant; tags: none (His tag cleaved with TEV); label: 5' fluorescein (FITC) on RQ-1; fork 1:2, 31 bp, RQ-1 5' arm 32 nt, RQ-3 3' arm 30 nt.
Data set [8] has as its target RECQL5 11-453 (human, UniProt O94762 11-453). Described as above. The conditions noted are these: protein: recombinant; tags: none (His tag cleaved with TEV); label: 5' fluorescein (FITC) on RQ-1; fork 1:2, 31 bp, RQ-1 5' arm 32 nt, RQ-3 3' arm 30 nt.
Data set [9] deals with RECQL5 11-526 Y419A (human, UniProt O94762 11-526, Y419A). The description is as above. Conditions: protein: recombinant; tags: none (His tag cleaved with TEV); label: 5' fluorescein (FITC) on RQ-1; fork 1:2, 31 bp, RQ-1 5' arm 32 nt, RQ-3 3' arm 30 nt.
For data set [10], the target named is RECQL5 11-609 (human, UniProt O94762 11-609). The description is as above. Conditions: protein: recombinant, tags: none (His tag cleaved with TEV).
In data set [11] the target is RECQL5 11-526 R352G (human, UniProt O94762 11-526, R352G). The data set is described as above. Conditions: protein: recombinant; tags: none (His tag cleaved with TEV); label: 5' fluorescein (FITC) on RQ-1; fork 1:2, 31 bp, RQ-1 5' arm 32 nt, RQ-3 3' arm 30 nt.
The target in data set [12] is RECQL5 11-526 Q345A (human, UniProt O94762 11-526, Q345A). Described as above. Conditions: protein: recombinant; tags: none (His tag cleaved with TEV); label: 5' fluorescein (FITC) on RQ-1; fork 1:2, 31 bp, RQ-1 5' arm 32 nt, RQ-3 3' arm 30 nt.
Data set [13] addresses RECQL5 11-526 D168A (human, UniProt O94762 11-526, D168A). The data set is described as above. Conditions: protein: recombinant; tags: none (His tag cleaved with TEV); label: 5' fluorescein (FITC) on RQ-1; fork 1:2, 31 bp, RQ-1 5' arm 32 nt, RQ-3 3' arm 30 nt.

Chain of RECQL5 11-609 (O94762 11-609): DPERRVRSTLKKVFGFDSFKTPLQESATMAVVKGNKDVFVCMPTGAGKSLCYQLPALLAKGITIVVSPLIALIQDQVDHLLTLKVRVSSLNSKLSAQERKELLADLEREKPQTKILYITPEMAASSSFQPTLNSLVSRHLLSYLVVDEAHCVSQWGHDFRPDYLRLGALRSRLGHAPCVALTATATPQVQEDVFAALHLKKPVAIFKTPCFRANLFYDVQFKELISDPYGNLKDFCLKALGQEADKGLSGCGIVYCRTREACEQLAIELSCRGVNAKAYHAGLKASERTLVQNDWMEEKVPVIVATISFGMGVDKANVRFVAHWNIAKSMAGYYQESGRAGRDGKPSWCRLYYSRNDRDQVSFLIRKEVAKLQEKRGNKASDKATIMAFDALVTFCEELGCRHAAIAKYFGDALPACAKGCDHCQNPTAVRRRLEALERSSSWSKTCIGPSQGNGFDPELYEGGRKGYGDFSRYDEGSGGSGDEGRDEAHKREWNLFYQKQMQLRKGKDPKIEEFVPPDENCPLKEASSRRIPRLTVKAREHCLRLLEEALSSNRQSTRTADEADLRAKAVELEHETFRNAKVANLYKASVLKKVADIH
Chain of RECQL5 11-526 Y419A (O94762 11-526 Y419A): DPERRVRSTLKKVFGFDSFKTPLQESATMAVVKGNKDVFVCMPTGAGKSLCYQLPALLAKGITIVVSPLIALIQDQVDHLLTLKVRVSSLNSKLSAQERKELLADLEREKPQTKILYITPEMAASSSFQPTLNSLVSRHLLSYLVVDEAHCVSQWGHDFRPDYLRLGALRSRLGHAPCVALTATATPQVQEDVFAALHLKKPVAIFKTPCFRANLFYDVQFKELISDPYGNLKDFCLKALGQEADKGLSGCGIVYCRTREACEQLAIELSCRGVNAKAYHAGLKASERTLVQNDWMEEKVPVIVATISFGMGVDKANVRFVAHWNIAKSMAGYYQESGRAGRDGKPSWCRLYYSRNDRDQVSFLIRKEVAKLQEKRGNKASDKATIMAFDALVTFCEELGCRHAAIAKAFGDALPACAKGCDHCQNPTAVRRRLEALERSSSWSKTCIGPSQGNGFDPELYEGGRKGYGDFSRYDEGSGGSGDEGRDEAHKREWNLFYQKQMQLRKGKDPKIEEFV
Chain of RECQL5 11-526 F420A (O94762 11-526 F420A): as the sequence (O94762 11-526 Y419A) above, with A409Y, F410A counted along it
Chain of RECQL5 11-526 H167A (O94762 11-526 H167A): as the sequence (O94762 11-526 Y419A) above, with H157A, A409Y counted along it
Chain of RECQL5 11-526 (O94762 11-526): as the sequence (O94762 11-526 Y419A) above, with A409Y counted along it
Chain of RECQL5 11-526 R349A (O94762 11-526 R349A): as the sequence (O94762 11-526 Y419A) above, with R339A, A409Y counted along it
Chain of RECQL5 11-526 Q345A (O94762 11-526 Q345A): as the sequence (O94762 11-526 Y419A) above, with Q335A, A409Y counted along it
Chain of RECQL5 11-526 R352G (O94762 11-526 R352G): as the sequence (O94762 11-526 Y419A) above, with R342G, A409Y counted along it
Chain of RECQL5 11-438 (O94762 11-438): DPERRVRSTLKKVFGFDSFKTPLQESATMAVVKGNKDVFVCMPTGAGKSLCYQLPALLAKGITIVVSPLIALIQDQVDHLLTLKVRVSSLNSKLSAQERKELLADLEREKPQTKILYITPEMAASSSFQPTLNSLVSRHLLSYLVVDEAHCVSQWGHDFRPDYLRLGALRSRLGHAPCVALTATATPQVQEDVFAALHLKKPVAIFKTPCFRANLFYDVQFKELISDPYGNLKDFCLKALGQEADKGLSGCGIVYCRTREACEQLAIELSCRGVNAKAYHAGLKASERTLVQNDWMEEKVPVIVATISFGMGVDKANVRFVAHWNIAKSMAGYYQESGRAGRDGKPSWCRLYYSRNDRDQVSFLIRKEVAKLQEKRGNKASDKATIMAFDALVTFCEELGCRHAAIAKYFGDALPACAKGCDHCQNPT
Chain of RECQL5 11-526 D168A (O94762 11-526 D168A): as the sequence (O94762 11-526 Y419A) above, with D158A, A409Y counted along it
Chain of RECQL5 11-526 D422A (O94762 11-526 D422A): as the sequence (O94762 11-526 Y419A) above, with A409Y, D412A counted along it
Chain of RECQL5 11-526 W165A (O94762 11-526 W165A): as the sequence (O94762 11-526 Y419A) above, with W155A, A409Y counted along it
Chain of RECQL5 11-453 (O94762 11-453): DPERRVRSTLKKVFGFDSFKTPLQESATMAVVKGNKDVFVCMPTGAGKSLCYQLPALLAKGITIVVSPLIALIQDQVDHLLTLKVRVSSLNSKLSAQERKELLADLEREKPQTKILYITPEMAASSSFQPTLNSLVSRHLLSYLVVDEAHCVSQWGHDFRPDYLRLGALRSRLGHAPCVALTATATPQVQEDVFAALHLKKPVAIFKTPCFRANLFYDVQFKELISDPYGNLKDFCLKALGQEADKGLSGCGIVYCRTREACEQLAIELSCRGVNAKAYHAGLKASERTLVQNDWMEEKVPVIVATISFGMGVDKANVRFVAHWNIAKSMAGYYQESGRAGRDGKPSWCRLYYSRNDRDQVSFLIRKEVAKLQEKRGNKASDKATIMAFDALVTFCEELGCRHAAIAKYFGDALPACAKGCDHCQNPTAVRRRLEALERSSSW

B1: splayed duplex (RQ-1 + RQ-3) (mixed)
DNA 1: ATCGATAGTCGGATCCTCTAGACAGCTCCATGTAGCAAGGCACTGGTAGAATTCGGCAGCGTC
DNA 2: GACGCTGCCGAATTCTACCAGTGCCTTGCTAGGACATCTTTGCCCACCTGCAGGTTCACCC
As for B1, the Kd is 164 ± 34 nM in [1]; 295 ± 29 nM in [2]; 51 ± 5 nM in [3]; 169 ± 6 nM in data set [4]; 108 ± 5 nM in [5]; 38 ± 4 nM in data set [6]. For the same molecule, the Kd in data set [7] stood at 45 ± 3 nM; in [8], 49 ± 28 nM; in data set [9] it was 39 ± 10 nM; in data set [10] (label: 5' fluorescein (FITC) on RQ-1, fork 1:2, 31 bp, RQ-1 5' arm 32 nt, RQ-3 3' arm 30 nt), 29 ± 4 nM; in [11] it was 29 ± 2 nM; in data set [12] it was 85 ± 4 nM. In data set [13], the Kd is 25 ± 2 nM.

B2: single stranded (RQ-1) (ssDNA)
DNA: B1 DNA 1
On to B2, for which the binding result in data set [10] (label: 5' fluorescein (FITC), single strand) was “binds”.

B3: double stranded (RQ-1 + RQ-2) (dsDNA)
DNA 1: B1 DNA 1
DNA 2: GACGCTGCCGAATTCTACCAGTGCCTTGCTACATGGAGCTGTCTAGAGGATCCGACTATCGAT
For B3, the binding result in data set [10] (label: 5' fluorescein (FITC) on RQ-1, blunt) is “binds”.
